For one sequence, binding results are on record in paper PMC4643982.

The series has as its target T1, EutR::MBP (Salmonella enterica serovar Typhimurium SL1344) (UniProt Q9ZFU7).
T1 sequence: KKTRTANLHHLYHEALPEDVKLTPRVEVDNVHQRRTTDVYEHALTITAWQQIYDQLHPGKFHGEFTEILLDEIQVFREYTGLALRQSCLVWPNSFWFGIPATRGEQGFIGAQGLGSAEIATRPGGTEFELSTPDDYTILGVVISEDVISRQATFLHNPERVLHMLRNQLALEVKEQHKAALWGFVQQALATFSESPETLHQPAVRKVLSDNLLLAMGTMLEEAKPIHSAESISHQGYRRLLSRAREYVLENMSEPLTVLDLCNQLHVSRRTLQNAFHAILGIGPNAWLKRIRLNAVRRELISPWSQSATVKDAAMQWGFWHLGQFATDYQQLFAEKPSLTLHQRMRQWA
Briefly: competition. The following applies: 60 mM HEPES pH 7.5, 300 mM KCl, 25 mM MgCl2, 5 mM EDTA, 3 mM DTT, 500 ug/ml BSA, 50 ng poly-dIdC, 1 mM ethanolamine, 150 nM vitamin B12; 25 min at 25 C; 6% ….

Take “CCGGAATTGCCAGCTGGGGCGCCCTCTGGTAAGGTTGGGAAGCCCTGCAAAGTAAACTGGATGGCTTTCTTGCCGCCAAGGATCTGATGGCGCAGGGGATCAAGATCTGATCAAGAGACAGGATGAGGATCGTTTCGCATGATTGAACAAGA (double strand) [kan promoter probe]”: the binding result was “no binding”.
